Laboratory results: patent publication US8383350
One block for each binder: values may come before it.

How the values were obtained:
[1] = target: humanized 12G8 anti-IL-10 antibody; test: sandwich ELISA: capture 13G4 0.5 ug/mL, humanized 12G8 100 ng/mL, detection biotinylated 11F12 2.0 ug/mL
[2] = target: humanized 12G8 anti-IL-10 antibody; test: sandwich ELISA: capture 13G4 0.5 ug/mL, humanized 12G8 100 ng/mL, detection biotinylated 11F12 0.5 ug/mL
[3] = target: humanized 12G8 anti-IL-10 antibody; test: blocking ELISA: purified antibody titrated against biotinylated humanized 12G8, binding to coated human IL-10 read
[4] = target: humanized 12G8 anti-IL-10 antibody; test: sandwich ELISA: capture 13G4 1.0 ug/mL, humanized 12G8 100 ng/mL, detection biotinylated 11F12 0.5 ug/mL
[5] = target: humanized 12G8 anti-IL-10 antibody; test: sandwich ELISA: capture 13G4 2.0 ug/mL, humanized 12G8 100 ng/mL, detection biotinylated 11F12 2.0 ug/mL
[6] = target: humanized 12G8 anti-IL-10 antibody; test: sandwich ELISA: capture 13G4 0.5 ug/mL, humanized 12G8 100 ng/mL, detection biotinylated 11F12 1.0 ug/mL
[7] = target: humanized 12G8 anti-IL-10 antibody; test: sandwich ELISA: capture 13G4 1.0 ug/mL, humanized 12G8 100 ng/mL, detection biotinylated 11F12 2.0 ug/mL
[8] = target: humanized 12G8 anti-IL-10 antibody; test: sandwich ELISA: capture 13G4 2.0 ug/mL, humanized 12G8 100 ng/mL, detection biotinylated 11F12 0.5 ug/mL
[9] = target: humanized 12G8 anti-IL-10 antibody; test: sandwich ELISA: capture 13G4 2.0 ug/mL, humanized 12G8 100 ng/mL, detection biotinylated 11F12 1.0 ug/mL
[10] = target: humanized 12G8 anti-IL-10 antibody; test: sandwich ELISA: capture 13G4 1.0 ug/mL, humanized 12G8 100 ng/mL, detection biotinylated 11F12 1.0 ug/mL

Signal:Noise Ratio [1]: 8
Signal:Noise Ratio [2]: 10
IC50 [3]: 2 nM
Signal:Noise Ratio [4]: 32
Signal:Noise Ratio [5]: 20
Signal:Noise Ratio [6]: 8
Signal:Noise Ratio [7]: 25
Signal:Noise Ratio [8]: 22
Signal:Noise Ratio [9]: 7.5
Signal:Noise Ratio [10]: 40
B1: JL11.11F12.C4 (antibody, V domains shown)
VH: EVQVQQSGPELVKPGASMKISCKASGYSFTGYTMNWVKQSHGKTLEWIGLINPYNGGTTYNQKFKGKATLTVDKSSSTAYMELLSLTSEDSAVYYCARRGSGYAMDYWGQGTSVTVS
VL: QIVLTQSPAIMSASLGERVAMTCTASSSVSSHYLHWYQQKPGSSPKLWIYSTSNLASGVPARFSGSGSGTSYSLTISSMEAEDAATYYCHQYHRSPWTFGGGTKLEIKR

IC50 [3]: 1 nM
B2: JL11.13G4.B11 (antibody, V domains shown)
VH: EVKLVESGGGLVKPGGSLKLSCAASGFAFSSYDMSWVRQTPEKRLEWVASISSDGSYTYYPDTVKGRFTISRDNARNTLNLQMSSLRSEDTALYFCARQDGYYLDYWGQGTTLTVSS
VL: EIVLTQSPALMAASPGEKVTITCSVSSSISSSKLYWYQQKSETSPKPWIYGTSNLASGVPVRFSGSGSGTSYSLTISSMEAEDAATYYCQQWSSYPLTFGAGTKLELKR
